The labels stand for the following.
T1: TNFR1 (Homo sapiens, UniProt P19438)
T1 chain: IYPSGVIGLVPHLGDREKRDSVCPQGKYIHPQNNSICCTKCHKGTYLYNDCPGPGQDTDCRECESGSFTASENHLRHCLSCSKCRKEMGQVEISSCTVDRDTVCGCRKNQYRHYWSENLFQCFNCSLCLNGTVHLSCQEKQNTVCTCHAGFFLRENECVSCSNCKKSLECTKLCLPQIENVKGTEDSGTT

B1: I45L (designed binder)
chain: MTLQELLREEALRRAEAEAFRYALELLAEKFPEQKEYLLDLAEELESQIRSLSGVDVEDVRKFLDKEWAWVKELLAEHPAELAEVEAARAARLAELRAEVEAKVAA
B2: A23W (designed binder)
chain: MTLQELLREEALRRAEAEAFRYWLELLAEKFPEQKEYLLDLAEEIESQIRSLSGVDVEDVRKFLDKEWAWVKELLAEHPAELAEVEAARAARLAELRAEVEAKVAA
B3: R92M (designed binder)
chain: MTLQELLREEALRRAEAEAFRYALELLAEKFPEQKEYLLDLAEEIESQIRSLSGVDVEDVRKFLDKEWAWVKELLAEHPAELAEVEAARAAMLAELRAEVEAKVAA
B4: Y37G (designed binder)
chain: MTLQELLREEALRRAEAEAFRYALELLAEKFPEQKEGLLDLAEEIESQIRSLSGVDVEDVRKFLDKEWAWVKELLAEHPAELAEVEAARAARLAELRAEVEAKVAA
B5: E101R (designed binder)
chain: MTLQELLREEALRRAEAEAFRYALELLAEKFPEQKEYLLDLAEEIESQIRSLSGVDVEDVRKFLDKEWAWVKELLAEHPAELAEVEAARAARLAELRAEVRAKVAA
B6: L75A (designed binder)
chain: MTLQELLREEALRRAEAEAFRYALELLAEKFPEQKEYLLDLAEEIESQIRSLSGVDVEDVRKFLDKEWAWVKELAAEHPAELAEVEAARAARLAELRAEVEAKVAA
B7: E101N (designed binder)
chain: MTLQELLREEALRRAEAEAFRYALELLAEKFPEQKEYLLDLAEEIESQIRSLSGVDVEDVRKFLDKEWAWVKELLAEHPAELAEVEAARAARLAELRAEVNAKVAA
B8: F63E (designed binder)
chain: MTLQELLREEALRRAEAEAFRYALELLAEKFPEQKEYLLDLAEEIESQIRSLSGVDVEDVRKELDKEWAWVKELLAEHPAELAEVEAARAARLAELRAEVEAKVAA
B9: D40M (designed binder)
chain: MTLQELLREEALRRAEAEAFRYALELLAEKFPEQKEYLLMLAEEIESQIRSLSGVDVEDVRKFLDKEWAWVKELLAEHPAELAEVEAARAARLAELRAEVEAKVAA
B10: E67W (designed binder)
chain: MTLQELLREEALRRAEAEAFRYALELLAEKFPEQKEYLLDLAEEIESQIRSLSGVDVEDVRKFLDKWWAWVKELLAEHPAELAEVEAARAARLAELRAEVEAKVAA
B11: Y22P (designed binder)
chain: MTLQELLREEALRRAEAEAFRPALELLAEKFPEQKEYLLDLAEEIESQIRSLSGVDVEDVRKFLDKEWAWVKELLAEHPAELAEVEAARAARLAELRAEVEAKVAA
B12: K35F (designed binder)
chain: MTLQELLREEALRRAEAEAFRYALELLAEKFPEQFEYLLDLAEEIESQIRSLSGVDVEDVRKFLDKEWAWVKELLAEHPAELAEVEAARAARLAELRAEVEAKVAA
B13: V85W (designed binder)
chain: MTLQELLREEALRRAEAEAFRYALELLAEKFPEQKEYLLDLAEEIESQIRSLSGVDVEDVRKFLDKEWAWVKELLAEHPAELAEWEAARAARLAELRAEVEAKVAA
B14: V55H (designed binder)
chain: MTLQELLREEALRRAEAEAFRYALELLAEKFPEQKEYLLDLAEEIESQIRSLSGHDVEDVRKFLDKEWAWVKELLAEHPAELAEVEAARAARLAELRAEVEAKVAA
B15: V100K (designed binder)
chain: MTLQELLREEALRRAEAEAFRYALELLAEKFPEQKEYLLDLAEEIESQIRSLSGVDVEDVRKFLDKEWAWVKELLAEHPAELAEVEAARAARLAELRAEKEAKVAA
B16: L39F (designed binder)
chain: MTLQELLREEALRRAEAEAFRYALELLAEKFPEQKEYLFDLAEEIESQIRSLSGVDVEDVRKFLDKEWAWVKELLAEHPAELAEVEAARAARLAELRAEVEAKVAA
B17: E10H (designed binder)
chain: MTLQELLREHALRRAEAEAFRYALELLAEKFPEQKEYLLDLAEEIESQIRSLSGVDVEDVRKFLDKEWAWVKELLAEHPAELAEVEAARAARLAELRAEVEAKVAA
B18: Y22D (designed binder)
chain: MTLQELLREEALRRAEAEAFRDALELLAEKFPEQKEYLLDLAEEIESQIRSLSGVDVEDVRKFLDKEWAWVKELLAEHPAELAEVEAARAARLAELRAEVEAKVAA
B19: L41K (designed binder)
chain: MTLQELLREEALRRAEAEAFRYALELLAEKFPEQKEYLLDKAEEIESQIRSLSGVDVEDVRKFLDKEWAWVKELLAEHPAELAEVEAARAARLAELRAEVEAKVAA
B20: A80K (designed binder)
chain: MTLQELLREEALRRAEAEAFRYALELLAEKFPEQKEYLLDLAEEIESQIRSLSGVDVEDVRKFLDKEWAWVKELLAEHPKELAEVEAARAARLAELRAEVEAKVAA
B21: E10G (designed binder)
chain: MTLQELLREGALRRAEAEAFRYALELLAEKFPEQKEYLLDLAEEIESQIRSLSGVDVEDVRKFLDKEWAWVKELLAEHPAELAEVEAARAARLAELRAEVEAKVAA
B22: A17I (designed binder)
chain: MTLQELLREEALRRAEIEAFRYALELLAEKFPEQKEYLLDLAEEIESQIRSLSGVDVEDVRKFLDKEWAWVKELLAEHPAELAEVEAARAARLAELRAEVEAKVAA
B23: Q34I (designed binder)
chain: MTLQELLREEALRRAEAEAFRYALELLAEKFPEIKEYLLDLAEEIESQIRSLSGVDVEDVRKFLDKEWAWVKELLAEHPAELAEVEAARAARLAELRAEVEAKVAA
B24: Q34D (designed binder)
chain: MTLQELLREEALRRAEAEAFRYALELLAEKFPEDKEYLLDLAEEIESQIRSLSGVDVEDVRKFLDKEWAWVKELLAEHPAELAEVEAARAARLAELRAEVEAKVAA
B25: F20T (designed binder)
chain: MTLQELLREEALRRAEAEATRYALELLAEKFPEQKEYLLDLAEEIESQIRSLSGVDVEDVRKFLDKEWAWVKELLAEHPAELAEVEAARAARLAELRAEVEAKVAA
B26: A28P (designed binder)
chain: MTLQELLREEALRRAEAEAFRYALELLPEKFPEQKEYLLDLAEEIESQIRSLSGVDVEDVRKFLDKEWAWVKELLAEHPAELAEVEAARAARLAELRAEVEAKVAA
B27: E9P (designed binder)
chain: MTLQELLRPEALRRAEAEAFRYALELLAEKFPEQKEYLLDLAEEIESQIRSLSGVDVEDVRKFLDKEWAWVKELLAEHPAELAEVEAARAARLAELRAEVEAKVAA
B28: K62N (designed binder)
chain: MTLQELLREEALRRAEAEAFRYALELLAEKFPEQKEYLLDLAEEIESQIRSLSGVDVEDVRNFLDKEWAWVKELLAEHPAELAEVEAARAARLAELRAEVEAKVAA
B29: V60A (designed binder)
chain: MTLQELLREEALRRAEAEAFRYALELLAEKFPEQKEYLLDLAEEIESQIRSLSGVDVEDARKFLDKEWAWVKELLAEHPAELAEVEAARAARLAELRAEVEAKVAA
B30: R89D (designed binder)
chain: MTLQELLREEALRRAEAEAFRYALELLAEKFPEQKEYLLDLAEEIESQIRSLSGVDVEDVRKFLDKEWAWVKELLAEHPAELAEVEAADAARLAELRAEVEAKVAA
B31: P32L (designed binder)
chain: MTLQELLREEALRRAEAEAFRYALELLAEKFLEQKEYLLDLAEEIESQIRSLSGVDVEDVRKFLDKEWAWVKELLAEHPAELAEVEAARAARLAELRAEVEAKVAA
B32: L38R (designed binder)
chain: MTLQELLREEALRRAEAEAFRYALELLAEKFPEQKEYRLDLAEEIESQIRSLSGVDVEDVRKFLDKEWAWVKELLAEHPAELAEVEAARAARLAELRAEVEAKVAA
B33: A102W (designed binder)
chain: MTLQELLREEALRRAEAEAFRYALELLAEKFPEQKEYLLDLAEEIESQIRSLSGVDVEDVRKFLDKEWAWVKELLAEHPAELAEVEAARAARLAELRAEVEWKVAA
B34: Y37N (designed binder)
chain: MTLQELLREEALRRAEAEAFRYALELLAEKFPEQKENLLDLAEEIESQIRSLSGVDVEDVRKFLDKEWAWVKELLAEHPAELAEVEAARAARLAELRAEVEAKVAA

This note sets out measurements from publication PMC12416549 (2024).

The assay deals with T1, TNFR1. Put plainly: yeast display SC50.
As to B1, the “apparent Kd (screen)” value was 539 pM. In the case of B2, the “apparent Kd (screen)” value worked out at 869 pM. As for B3, the “apparent Kd (screen)” value is 593 pM. The value for B4 was 5310 pM; that for B5 was 490 pM. Take B6: the “apparent Kd (screen)” value amounted to 653 pM.

Consider B7, for which the “apparent Kd (screen)” value came to 718 pM.

Consider B8, for which the “apparent Kd (screen)” value was found to be 593 pM. In the case of B9 it was 593 pM; in that of B10, 10400 pM. In the case of B11 it was 4390 pM; in that of B12, 539 pM; in that of B13, 869 pM.

As to B14, the “apparent Kd (screen)” value stood at 1160 pM. In the case of B15 it was 490 pM; in that of B16, 189 pM. Consider B17, for which the “apparent Kd (screen)” value amounted to 3300 pM.

Consider B18, for which the “apparent Kd (screen)” value is 446 pM. For the molecule B19, the “apparent Kd (screen)” value was determined as 11400 pM. In the case of B20 it was 718 pM. In the case of B21 it was 1400 pM; in that of B22, 229 pM. Take B23: the “apparent Kd (screen)” value came to 593 pM. Turning to B24, the “apparent Kd (screen)” value was 5310 pM.

For B25, the “apparent Kd (screen)” value was 1160 pM.

Regarding B26, the “apparent Kd (screen)” value worked out at 2050 pM. As to B27, the “apparent Kd (screen)” value came to 20200 pM. Regarding B28, the “apparent Kd (screen)” value was found to be 490 pM. Consider B29, for which the “apparent Kd (screen)” value turned out to be 653 pM.

For B30, the “apparent Kd (screen)” value came out at 2480 pM. Turning to B31, the “apparent Kd (screen)” value turned out to be 593 pM. Turning to B32, the “apparent Kd (screen)” value came to 4390 pM. The value for B33 was 539 pM.

As to B34, the “apparent Kd (screen)” value was found to be 869 pM.
